In US20260184782A1 (TWIST BIOSCIENCE, published 2026):

T1: human TIGIT-Fc (human, UniProt Q495A1 22-141, limits assumed)
T1 construct: not shown: Fc; not described
T1 sequence (looked up): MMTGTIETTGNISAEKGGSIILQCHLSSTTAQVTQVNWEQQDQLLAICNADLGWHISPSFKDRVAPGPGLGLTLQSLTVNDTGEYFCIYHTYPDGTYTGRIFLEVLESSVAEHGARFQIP

B1: TIGIT-SC146 (Fc fusion)
VHH: EVQLVESGGGLVQPGGGLRLSCAASGFTLENNMMGWFRQAPGKEREFVAAISASGTLRAYADSVKGRFTISADNSKNTAYLQMNSLKPEDTAVYYCAKGGQAGPMAFYFDYWGQGTLVTVSS
notes: VHH-Fc
B2: TIGIT-SC179 (Fc fusion)
VHH: EVQLVESGGGLVQPGGSLRLSCAASGFTFSPSWMGWFRQAPGKEREWVASVLRGGYTWYADSVKGRFTISADNSKNTAYLQMNSLKPEDTAVYYCASEVASGETDYWGQGTLVTVSS
notes: VHH-Fc
B3: TIGIT-SC163 (Fc fusion)
VHH: EVQLVESGGGLVQPGGSLRLSCAASGFTFDRSWMGWFRQAPGKEREWVASVLRGGYTWYADSVKGRFTISADNSKNTAYLQMNSLKPEDTAVYYCATDKRGPHPDYWGQGTLVTVSS
notes: VHH-Fc
B4: TIGIT-SC158 (Fc fusion)
VHH: EVQLVESGGGLVQPGGSLRLSCAASGFTFSPSWMGWFRQAPGKEREWVASVLRGGYTWYADSVKGRFTISADNSKNTAYLQMNSLKPEDTAVYYCAREGRSSSPWFDPWGQGTLVTVSS
notes: VHH-Fc
B5: TIGIT-SC159 (Fc fusion)
VHH: EVQLVESGGGLVQPGGSLRLSCAASGFTFDRSWMGWFRQAPGKEREWVASVLRGGYTWYADSVKGRFTISADNSKNTAYLQMNSLKPEDTAVYYCAREGRSSSPWFDPWGQGTLVTVSS
notes: VHH-Fc
B6: TIGIT-SC154 (Fc fusion)
VHH: EVQLVESGGGLVQPGGSLRLSCAASGFAFSSDWMGWFRQAPGKEREWVASVLRGGYTWYADSVKGRFTISADNSKNTAYLQMNSLKPEDTAVYYCAGDYRGFEMAFDPWGQGTLVTVSS
notes: VHH-Fc
B7: TIGIT-SC202 (Fc fusion)
VHH: EVQLVESGGGLVQPGGSLRLSCAASGFTFSPSWMGWFRQAPGKEREWVASVLRGGYTWYADSVKGRFTISADNSKNTAYLQMNSLKPEDTAVYYCTTDGGYSGIVGFAWGQGTLVTVSS
notes: VHH-Fc
B8: TIGIT-SC155 (Fc fusion)
VHH: EVQLVESGGGLVQPGGSLRLSCAASGNTFSGGFMGWFRQAPGKEREWVASVLRGGYTWYADSVKGRFTISADNSKNTAYLQMNSLKPEDTAVYYCAGDYRGFEMAFDPWGQGTLVTVSS
notes: VHH-Fc
B9: TIGIT-SC160 (Fc fusion)
VHH: EVQLVESGGGLVQPGGSLRLSCAASGNTFSGGFMGWFRQAPGKEREWVASVLRGGYTWYADSVKGRFTISADNSKNTAYLQMNSLKPEDTAVYYCAREGRSSSPWFDPWGQGTLVTVSS
notes: VHH-Fc
B10: TIGIT-SC161 (Fc fusion)
VHH: EVQLVESGGGLVQPGGSLRLSCAASGFTFSPSWMGWFRQAPGKEREWVASVLRGGYTWYADSVKGRFTISADNSKNTAYLQMNSLKPEDTAVYYCTTDRAIGVRPLFDHWGQGTLVTVSS
notes: VHH-Fc
B11: TIGIT-SC145 (Fc fusion)
VHH: EVQLVESGGGLVQPGGSLRLSCAASGNTFSGGFTLGYYVMGWFRQAPGKEREFVAAISRSGTLKAYADGVKGRFTISADNSKNTAYLQMNSLKPEDTAVYYCARVEAYGDPLGYWGQGTLVTVSS
notes: VHH-Fc
B12: TIGIT-SC147 (Fc fusion)
VHH: EVQLVESGGGLVQPGGSLRLSCAASGTITSAVFMGWFRQAPGKEREFVAAVIWRGGSLKSYADSVKGRFTISADNSKNTAYLQMNSLKPEDTAVYYCAKLAVAGNYYYYGMDVWGQGTLVTVSS
notes: VHH-Fc
B13: TIGIT-SC148 (Fc fusion)
VHH: EVQLVESGGGLVQPGGSLRLSCAASGDIGSINAMGWFRQAPGKEREFVAGIWRSGNLKAYADSVKGRFTISADNSKNTAYLQMSSLKPEDTAVYYCARGNIVVVPAAFVIWFDPWGQGTLVTVSS
notes: VHH-Fc

Target: T1, human TIGIT-Fc
Assay: CD155 competition ELISA, single point; further: test concentration or dose not given here
Method: TIGIT/CD155 inhibition of VHH-Fcs were assessed using an ELISA assay (Table 10B). Briefly, human TIGIT-Fc was coated on a plate & then incubated with VHH-Fcs and human CD155-biotin. Bound CD155-biotin was detected using a streptavidin-HRP conjugate visualized with TMB. Strong inhibitors from the single point screen were titrated to determine EC50 (Table 10C).

| Binder | OD (450 nm) [OD] |
| --- | --- |
| B1 | 0.423 |
| B2 | 0.591 |
| B3 | 0.328 |
| B4 | 0.472 |
| B5 | 0.749 |
| B6 | 0.465 |
| B7 | 0.545 |
| B8 | 0.449 |
| B9 | 0.467 |
| B10 | 0.451 |
| B11 | 0.432 |
| B12 | 0.878 |
| B13 | 0.52 |
